Results taken from the supplement of paper PMC9112550, “Optimization of the antimicrobial peptide Bac7 by deep mutational scanning” (BMC Biology, 2022).

Tested on: Escherichia coli TOP10
Assay: shrunken log2 fold change of peptide-encoding DNA abundance (4.5 h post-induction vs induction); higher = less antimicrobial activity (less host growth inhibition)
Settings: time post-induction: 4.5 h; library: site-saturation at positions 5, 18, 19, 20
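Note: peptides expressed intracellularly from a pBAD plasmid library in pooled LB shake-flask culture, induced with 0.3% L-arabinose, DNA abundance read by NGS, three biological replicates, DESeq2 with apeglm shrinkage.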

| Sequence | shrunken log2 fold change |
| --- | --- |
| RRIRDRPPRLPRPRPRPVFEPRP | 0.187 |
| RRIRKRPPRLPRPRPRPPKCPRP | 0.069 |
| RRIRPRPPRLPRPRPRPDYFPRP | -0.503 |
| RRIRKRPPRLPRPRPRPMSGPRP | -0.211 |
| RRIRYRPPRLPRPRPRPVGPPRP | -0.328 |
| RRIRCRPPRLPRPRPRPADAPRP | 1.44 |
| RRIRMRPPRLPRPRPRPHRQPRP | 0.532 |
| RRIRVRPPRLPRPRPRPPEHPRP | -0.219 |
| RRIRPRPPRLPRPRPRPKVAPRP | 0.02 |
| RRIRQRPPRLPRPRPRPRCAPRP | 0.385 |
| RRIRERPPRLPRPRPRPFTEPRP | -0.184 |
| RRIRKRPPRLPRPRPRPEMEPRP | 3.59 |
| RRIRIRPPRLPRPRPRPYPFPRP | -0.38 |
| RRIRVRPPRLPRPRPRPAMWPRP | -0.0044 |
| RRIRCRPPRLPRPRPRPVAKPRP | 0.275 |
| RRIRSRPPRLPRPRPRPSYSPRP | 0.232 |
| RRIRDRPPRLPRPRPRPDNWPRP | -0.232 |
| RRIRFRPPRLPRPRPRPNGGPRP | 0.000932 |
| RRIRMRPPRLPRPRPRPAGLPRP | 0.47 |
| RRIRKRPPRLPRPRPRPFWLPRP | 0.341 |
| RRIRVRPPRLPRPRPRPINSPRP | -0.022 |
| RRIRYRPPRLPRPRPRPMRMPRP | 0.126 |
| RRIRARPPRLPRPRPRPYDPPRP | -0.406 |
| RRIRCRPPRLPRPRPRPTMAPRP | -0.0611 |
| RRIRPRPPRLPRPRPRPCYHPRP | -0.428 |

| Sequence | shrunken log2 fold change |
| --- | --- |
| RRIRVRPPRLPRPRPRPSWLPRP | 0.23 |
| RRIRPRPPRLPRPRPRPCPFPRP | -0.371 |
| RRIRGRPPRLPRPRPRPPVNPRP | 0.55 |
| RRIRFRPPRLPRPRPRPACPPRP | 0.12 |
| RRIRSRPPRLPRPRPRPLRIPRP | -0.0455 |
| RRIRRRPPRLPRPRPRPNQQPRP | -0.0676 |
| RRIRIRPPRLPRPRPRPEGRPRP | -0.0382 |
| RRIRHRPPRLPRPRPRPYALPRP | -0.078 |
| RRIRGRPPRLPRPRPRPSTIPRP | 0.235 |
| RRIRWRPPRLPRPRPRPKAEPRP | -0.015 |
| RRIRFRPPRLPRPRPRPQMVPRP | -0.0194 |
| RRIRHRPPRLPRPRPRPDCSPRP | -0.284 |
| RRIRSRPPRLPRPRPRPPWYPRP | -0.321 |
| RRIRVRPPRLPRPRPRPGMYPRP | -0.241 |
| RRIRQRPPRLPRPRPRPNAHPRP | -0.18 |
| RRIRNRPPRLPRPRPRPFIAPRP | -0.32 |
| RRIRKRPPRLPRPRPRPTRNPRP | 0.547 |
| RRIRERPPRLPRPRPRPCFLPRP | -0.647 |
| RRIRLRPPRLPRPRPRPICDPRP | 0.0695 |
| RRIRQRPPRLPRPRPRPWKFPRP | 0.0543 |
| RRIRSRPPRLPRPRPRPPPEPRP | 0.852 |
| RRIRFRPPRLPRPRPRPNTFPRP | -0.559 |
| RRIRARPPRLPRPRPRPMSTPRP | -0.0262 |
| RRIRPRPPRLPRPRPRPLGDPRP | 0.279 |
| RRIRARPPRLPRPRPRPCQTPRP | -0.0627 |

| Sequence | shrunken log2 fold change |
| --- | --- |
| RRIRQRPPRLPRPRPRPAQCPRP | -0.017 |
| RRIRMRPPRLPRPRPRPPVYPRP | 0.167 |
| RRIRMRPPRLPRPRPRPVQHPRP | 0.415 |
| RRIRFRPPRLPRPRPRPDVIPRP | 0.0834 |
| RRIRLRPPRLPRPRPRPTQMPRP | 0.333 |
| RRIRHRPPRLPRPRPRPPHVPRP | 0.16 |
| RRIRSRPPRLPRPRPRPMRCPRP | 0.361 |
| RRIRMRPPRLPRPRPRPKETPRP | 0.201 |
| RRIRSRPPRLPRPRPRPQHYPRP | -0.804 |
| RRIRGRPPRLPRPRPRPEMVPRP | 2.43 |
| RRIRQRPPRLPRPRPRPFAAPRP | 0.336 |
| RRIRWRPPRLPRPRPRPMFYPRP | -0.395 |
| RRIRGRPPRLPRPRPRPDQHPRP | 0.271 |
| RRIRARPPRLPRPRPRPDGFPRP | 0.135 |
| RRIRFRPPRLPRPRPRPNMCPRP | -0.54 |
| RRIRKRPPRLPRPRPRPPCLPRP | 0.123 |
| RRIRFRPPRLPRPRPRPFNAPRP | -0.415 |
| RRIRCRPPRLPRPRPRPMTVPRP | -0.0302 |
| RRIRLRPPRLPRPRPRPRWKPRP | 0.191 |
| RRIRHRPPRLPRPRPRPCHKPRP | -0.0933 |
| RRIRARPPRLPRPRPRPAAHPRP | 0.478 |
| RRIRMRPPRLPRPRPRPKKTPRP | 1.46 |
| RRIRARPPRLPRPRPRPCQYPRP | -0.411 |
| RRIRTRPPRLPRPRPRPAERPRP | -0.104 |
| RRIRQRPPRLPRPRPRPFKYPRP | -0.0224 |

| Sequence | shrunken log2 fold change |
| --- | --- |
| RRIRPRPPRLPRPRPRPHMVPRP | -0.0201 |
| RRIRVRPPRLPRPRPRPGQFPRP | -0.156 |
| RRIRCRPPRLPRPRPRPPQIPRP | 0.328 |
| RRIRVRPPRLPRPRPRPANRPRP | -0.179 |
| RRIRPRPPRLPRPRPRPPWGPRP | 0.34 |
| RRIRYRPPRLPRPRPRPGQPPRP | 0.0516 |
| RRIRGRPPRLPRPRPRPDPLPRP | 0.072 |
| RRIRCRPPRLPRPRPRPCIQPRP | 0.0591 |
| RRIRMRPPRLPRPRPRPWKPPRP | -0.0836 |
| RRIRHRPPRLPRPRPRPDCPPRP | 0.0615 |
| RRIRFRPPRLPRPRPRPHERPRP | 0.0652 |
| RRIRLRPPRLPRPRPRPQMKPRP | -0.0293 |
| RRIRKRPPRLPRPRPRPKRHPRP | 0.255 |
| RRIRTRPPRLPRPRPRPHGHPRP | -0.136 |
| RRIRYRPPRLPRPRPRPNESPRP | 0.0169 |
| RRIRNRPPRLPRPRPRPAMYPRP | -0.112 |
| RRIRTRPPRLPRPRPRPPFAPRP | 0.195 |
| RRIRDRPPRLPRPRPRPWTHPRP | -0.291 |
| RRIRRRPPRLPRPRPRPWNAPRP | -0.0963 |
| RRIRPRPPRLPRPRPRPPPMPRP | 0.52 |
| RRIRSRPPRLPRPRPRPHADPRP | 0.121 |
| RRIRQRPPRLPRPRPRPFADPRP | -0.0142 |
| RRIRIRPPRLPRPRPRPGFFPRP | -0.00894 |
| RRIRYRPPRLPRPRPRPAEKPRP | -0.0964 |
| RRIRMRPPRLPRPRPRPWPIPRP | -0.00141 |

| Sequence | shrunken log2 fold change |
| --- | --- |
| RRIRQRPPRLPRPRPRPGPVPRP | -0.0186 |
| RRIRVRPPRLPRPRPRPFFKPRP | 0.0447 |
| RRIRARPPRLPRPRPRPNDVPRP | 0.128 |
| RRIRFRPPRLPRPRPRPFDQPRP | -0.291 |
| RRIRHRPPRLPRPRPRPETWPRP | -0.238 |
| RRIRIRPPRLPRPRPRPWTVPRP | -0.15 |
| RRIRLRPPRLPRPRPRPENQPRP | -0.0987 |
| RRIRLRPPRLPRPRPRPCHMPRP | -0.0107 |
| RRIRLRPPRLPRPRPRPDCPPRP | 0.0832 |
| RRIRWRPPRLPRPRPRPLFRPRP | -0.0807 |
| RRIRLRPPRLPRPRPRPWMLPRP | -0.0153 |
| RRIRIRPPRLPRPRPRPDNRPRP | -0.00277 |
| RRIRFRPPRLPRPRPRPEIKPRP | 0.058 |
| RRIRHRPPRLPRPRPRPMLQPRP | -0.0377 |
| RRIRSRPPRLPRPRPRPDMTPRP | 0.154 |
| RRIRCRPPRLPRPRPRPCDAPRP | -0.466 |
| RRIRHRPPRLPRPRPRPRDLPRP | -0.0495 |
| RRIRPRPPRLPRPRPRPIKSPRP | -0.0993 |
| RRIRWRPPRLPRPRPRPSFVPRP | -0.284 |
| RRIRGRPPRLPRPRPRPMCQPRP | 0.62 |
| RRIRPRPPRLPRPRPRPGQGPRP | 0.201 |
| RRIRERPPRLPRPRPRPFYRPRP | -0.111 |
| RRIRKRPPRLPRPRPRPSLEPRP | 0.286 |
| RRIRQRPPRLPRPRPRPKFGPRP | 0.102 |
| RRIRWRPPRLPRPRPRPKTCPRP | 0.174 |
